# Data as given in doi:10.1101/521658v1.
# Assays:
# [1] = substrate: NC(=O)c1ccc[n+]([C@@H]2O[C@H](COP(=O)(O)OP(=O)(O)OC[C@H]3O[C@@H](n4cnc5c(N)ncnc54)[C@H](O)[C@@H]3O)[C@@H](O)[C@H]2O)c1; experiment: purified protein, by the assay type; conditions: pH 7.8
# [2] = substrate: Nc1ncnc2c1ncn2[C@@H]1O[C@H](COP(=O)(O)OP(=O)(O)OP(=O)(O)O)[C@@H](O)[C@H]1O; experiment: purified protein, by the assay type; conditions: pH 7.8
protein,measurement,setting,value
6HIS-Δ38NADKc-1 (with AtCaM1/Ca^2+) (Arabidopsis thaliana) (protein) AGELLLRRRKLDQGASMGYKDVKIAPLIERKDSGRRSNLERFSHYVARQLGFEDPNEYPQLCKLANGYLLKTKGYDENVDEYLENEAERDSLYVHLLEEFDRCILTYFSFNWTQSSNLISQALSDESDQKVPKLKDFVMAATRKQRFERVTKDLKVKRVISTLVEEMRVIGSGSSEPHCTEVMSPVAHNKRSPVLLLMGGGMGAGKSTVLKDIFLESFWSEAQADAVVIEADAFKETDVIYRALSSRGHHDDMLQTAELVHQSSTDAASSLLVTALNDGRDVIMDGTLSWEPFVEQMIEMARNVHKQKYRMGEGYKVSEEGTITEKYWEEEEEETKENGKQQNLKPYRIELVGVVCDAYLAVARGIRRALMVKRAVRVKPQLNSHKRFANAFPKYCELVDNARLYCTNAVGGPPRLIAWKDGNSKLLVDPEDIDCLKRVSSLNPDAESIYELYPDPSQLSKPGSVWNDVVLVPSRPKVQKELSDAIRRIEKAQPKN,Km,[1],147 (±17) uM
same,kcat,[1],42 ± 2 s⁻¹
same,kcat/Km,[1],280000 M⁻¹ s⁻¹
same,Km,[2],203(±30) uM
same,kcat,[2],41 ± 2 s⁻¹
same,kcat/Km,[2],200000 M⁻¹ s⁻¹
